Test results as given in the supplement of paper PMC10567573.

B1: KRT71 (parent)
chain: FGSRSLYSLGGVRSLNVASGSGKS

Variants of: B1
Test: protein stability index of a GFP-peptide fusion (GPS, HEK-293T) (PSI 1-6); higher = more stable
Settings: c terminus: a fixed tail appended
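Further: lentivirally expressed fusions sorted by FACS into six bins by GFP to DsRed ratio, PSI derived from sequencing read proportions per bin multiplied by bin number.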

Protein stability index of substitutions, site by site:
V12: E 2.3; P 2.2; H 1.68; T 2.27; K 2; I 2.12; L 2.21; F 1.66; A 1.81; C 1.55; Y 1.65; W 1.71; D 2.05; Q 2.11; M 1.68; R 2.37; G 2.13; N 2.28; S 2.45
G20: K 1.5; M 1.49; H 1.67; E 1.49; C 1.54; D 2.18; A 1.96; I 1.72; N 1.82; L 1.55; F 2.04
S19: G 1.67; D 1.89; Y 1.89; E 1.98; A 1.8; Q 2.03; K 2.23; H 1.53; T 2.06; L 1.47; V 2.54; R 1.92; F 1.47; N 2.38; C 1.47; P 1.8; I 1.44; W 2.85; M 1.88
R13: L 2.27; P 1.81; E 1.86; S 2.48; D 2.06; C 2.29; W 1.67; K 1.34; N 1.87; A 3.09; Q 1.43; H 1.81; I 1.93; M 1.26; Y 1.7; F 1.72; G 1.45; V 1.74; T 1.28
N16: K 2.02; W 2.95; R 2.07; Y 2.16; G 1.1; I 1.29; D 2.38; T 1.47; P 2.04; C 1.97; M 1.83; L 1.73; Q 2.44; F 2.22; E 1.73; S 2.15; V 2.06; H 2.21; A 1.93
S14: W 1.44; E 2.66; N 2.38; G 2.04; A 1.59; F 1.89; M 1.65; R 1.5; I 1.38; Y 2.36; K 1.81; P 1.71; D 1.92; V 1.03; H 2; L 2.04; T 1.74; C 1.58; Q 1.86
L15: T 1.92; H 1.37; E 2.15; D 1.61; V 2.07; F 1.77; Q 2.51; N 2.33; I 1.7; K 1.99; R 2.28; G 1.88; S 1.92; M 2.18; P 2.02; W 1.34; Y 2.62; C 2.35; A 2.35
A18: S 2.65; R 2.46; H 2.39; K 2.63; E 2.11; Q 1.78; G 2.1; V 1.88; W 2.87; T 1.62; L 2.27; D 1.62; C 1.73; M 2.95; N 2.81; P 2.2; I 1.39; F 1.9; Y 2.94
G11: T 2.4; V 4.85; W 2.62; Y 3.77
V17: L 2.5; G 1.91; D 2.13; P 1.92; S 1.92; F 2.17; T 2.52; W 1.86; H 1.97; R 1.7; Q 1.97; K 2.01; E 1.59; I 1.94; C 2.31; M 2.38; Y 2.07; A 1.91; N 1.83
